Experimental findings from paper PMC8461249 (2021) are described below.

Holding throughout (test): SPR
In general terms: Surface plasmon resonance follows binding to a sensor surface in real time, without labels.

Test [1] has as its target T1, TβRII-SE/Fc (TβRII-Soluble Endogenous fused to the human IgG1 Fc domain) (human).
T1 chain: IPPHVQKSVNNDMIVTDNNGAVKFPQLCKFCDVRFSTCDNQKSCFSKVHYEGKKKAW

The target of test [2] is T2, TβRII-Fc (TβRII extracellular domain fused to human IgG1 Fc) (human, UniProt P37173-1 23-166).
T2 sequence (P37173 23-166): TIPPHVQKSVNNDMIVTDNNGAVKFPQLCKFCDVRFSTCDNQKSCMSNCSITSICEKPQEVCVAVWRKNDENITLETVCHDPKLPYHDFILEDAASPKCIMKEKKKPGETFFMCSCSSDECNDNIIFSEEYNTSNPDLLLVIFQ
In another test the target is 1D11.
The target of test [3] is T1, TβRII-SE/Fc (TβRII-Soluble Endogenous …).
The target of test [4] is T2, TβRII-Fc (TβRII extracellular domain …). The source holds these as a separate data set.

B1: TGF-β3 (ligand)
chain: ALDTNYCFRNLEENCCVRPLYIDFRQDLGWKWVHEPKGYYANFCSGPCPYLRSADTTHSTVLGLYNTLNPEASASPCCVPQDLEPLTILYYVGRTPKVEQLSNMVVKSCKCS
A word on the koff: it is the first-order rate constant of dissociation. Read a low koff as a long-lived complex. What is called Kd is the free concentration of one partner at which half of the binding sites on the other are occupied at equilibrium, for simple one-to-one binding. Low values mean higher affinity, high ones lower affinity. On to B1, for which the koff in test [1] is 0.00018 s⁻¹; in test [2], 0.00116 s⁻¹; with 1D11, 0.00012 s⁻¹. In addition, the dissociation constant Kd turned out to be 0.068 nM with 1D11, 0.093 nM in test [3] and 0.137 nM in test [4].

B2: TGF-β2 (ligand)
chain: ALDAAYCFRNVQDNCCLRPLYIDFKRDLGWKWIHEPKGYNANFCAGACPYLWSSDTQHSRVLSLYNTINPEASASPCCVSQDLEPLTILYYIGKTPKIEQLSNMIVKSCKCS
As to B2, the koff in test [1] turned out to be 0.00067 s⁻¹; in test [2], 0.0197 s⁻¹; in the test with 1D11, 0.0015 s⁻¹. For the same molecule, the Kd is 0.33 nM in the test with 1D11, 0.674 nM in test [3] and 9.5 nM in test [4].
